Test results as given in US20240148828A1 (SHATTUCK LABS, published 2024).

B1: BTN2A1/3A1-Fc-CD19scFv heterodimeric protein (Fc fusion)
chain 1: QFIVVGPTDPILATVGENTTLRCHLSPEKNAEDMEVRWFRSQFSPAVFVYKGGRERTEEQMEEYRGRTTFVSKDISRGSVALVIHNITAQENGTYRCYFQEGRSYDEAILHLVVAGLGSKPLISMRGHEDGGIRLECISRGWYPKPLTVWRDPYGGVAPALKEVSMPDADGLFMVTTAVIIRDKSVRNMSCSINNTLLGQKKESVIFIPESFMPSVSPCAGSGSRKGGKRGSKYGPPCPPCPAPEFLGGPSVFLFPPKPKDQLMISRTPEVTCVVVDVSQEDPEVQFNWYVDGVEVHNAKTKPREEQFNSTYRVVSVLTVLHQDWLSGKEYKCKVSSKGLPSSIEKTISNATGQPREPQVYTLPPSQEEMTKNQVSLTCLVKGFYPSDIAVEWESNGQPENNYKTTPPVLDSDGSFFLYSRLTVDKSRWQEGNVFSCSVLHEALHNHYTQKSLSLSLGKDEGGEDGSDIQMTQTTSSLSASLGDRVTISCRASQDISKYLNWYQQKPDGTVKLLIYHTSRLHSGVPSRFSGSGSGTDYSLTISNLEQEDIATYFCQQGNTLPYTFGGGTKLEITGGGSGGGSGGGSEVKLQESGPGLVAPSQSLSVTCTVSGVSLPDYGVSWIRQPPRKGLEWLGVIWGSETTYYNSALKSRLTIIKDNSKSQVFLKMNSLQTDDTAIYYCAKHYYYGGSYAMDYWGQGTSVTVSS
chain 2: not shown
notes: Secreted from Expi293 or CHO cells and purified; also called BTN2A1/3A1-Fc-CD19scFv3; BTN2A1/3A1-Fc-19scFv
B2: BTN2A1/3A1-Fc-B7H3scFv heterodimeric protein (Fc fusion)
chain 1: QFIVVGPTDPILATVGENTTLRCHLSPEKNAEDMEVRWFRSQFSPAVFVYKGGRERTEEQMEEYRGRTTFVSKDISRGSVALVIHNITAQENGTYRCYFQEGRSYDEAILHLVVAGLGSKPLISMRGHEDGGIRLECISRGWYPKPLTVWRDPYGGVAPALKEVSMPDADGLFMVTTAVIIRDKSVRNMSCSINNTLLGQKKESVIFIPESFMPSVSPCAGSGSRKGGKRGSKYGPPCPPCPAPEFLGGPSVFLFPPKPKDQLMISRTPEVTCVVVDVSQEDPEVQFNWYVDGVEVHNAKTKPREEQFNSTYRVVSVLTVLHQDWLSGKEYKCKVSSKGLPSSIEKTISNATGQPREPQVYTLPPSQEEMTKNQVSLTCLVKGFYPSDIAVEWESNGQPENNYKTTPPVLDSDGSFFLYSRLTVDKSRWQEGNVFSCSVLHEALHNHYTQKSLSLSLGKDEGGEDGSDIQMTQSPSFLSASVGDRVTITCKASQNVDTNVAWYQQKPGKAPKALIYSASYRYSGVPSRFSGSGSGTDFTLTISSLQPEDFAEYFCQQYNNYPFTFGQGTKLEIKSSGGGGSGGGGSGGGGSEVQLVESGGGLVQPGGSLRLSCAASGFTFSSFGMHWVRQAPGKGLEWVAYISSGSGTIYYADTVKGRFTISRDNAKNSLYLQMNSLRAEDTAVYYCARHGYRYEGFDYWGQGTTVTVSS
chain 2: not shown
notes: Produced by transient co-transfection of ExpiCHO cells; also called BTN2A1/3A1-Fc-B7H3scFv/B7H3scFv

Columns and labels:
[1] = target: T1, CD19 expressed on cells (Daudi, Raji, K562-CD19) (human, UniProt P15391 20-556); assay: flow cytometry on Daudi cells
T1 construct: whole, on cells
T1 sequence (looked up): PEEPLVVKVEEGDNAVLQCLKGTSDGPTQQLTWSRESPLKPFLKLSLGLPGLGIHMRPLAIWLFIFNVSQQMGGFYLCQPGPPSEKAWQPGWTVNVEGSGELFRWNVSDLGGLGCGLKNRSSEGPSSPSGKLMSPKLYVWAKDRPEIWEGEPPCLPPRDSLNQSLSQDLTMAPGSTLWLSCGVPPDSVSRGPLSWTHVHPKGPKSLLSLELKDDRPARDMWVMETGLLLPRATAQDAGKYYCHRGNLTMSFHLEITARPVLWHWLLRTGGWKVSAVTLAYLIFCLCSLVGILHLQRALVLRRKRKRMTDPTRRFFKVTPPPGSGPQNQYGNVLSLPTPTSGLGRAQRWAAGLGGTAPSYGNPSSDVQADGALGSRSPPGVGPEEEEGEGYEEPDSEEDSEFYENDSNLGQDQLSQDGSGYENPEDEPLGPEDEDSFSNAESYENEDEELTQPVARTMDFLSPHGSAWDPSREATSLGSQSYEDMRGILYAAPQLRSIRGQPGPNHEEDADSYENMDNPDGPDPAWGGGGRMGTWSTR

[2] = target: T2, recombinant FAP-His protein (UniProt Q12884 26-760); assay: MSD plate assay, plate-bound FAP-His, detection with anti-BTN3A1 antibody
T2 construct: not shown: His tag
T2 sequence (Q12884 26-760 limits assumed): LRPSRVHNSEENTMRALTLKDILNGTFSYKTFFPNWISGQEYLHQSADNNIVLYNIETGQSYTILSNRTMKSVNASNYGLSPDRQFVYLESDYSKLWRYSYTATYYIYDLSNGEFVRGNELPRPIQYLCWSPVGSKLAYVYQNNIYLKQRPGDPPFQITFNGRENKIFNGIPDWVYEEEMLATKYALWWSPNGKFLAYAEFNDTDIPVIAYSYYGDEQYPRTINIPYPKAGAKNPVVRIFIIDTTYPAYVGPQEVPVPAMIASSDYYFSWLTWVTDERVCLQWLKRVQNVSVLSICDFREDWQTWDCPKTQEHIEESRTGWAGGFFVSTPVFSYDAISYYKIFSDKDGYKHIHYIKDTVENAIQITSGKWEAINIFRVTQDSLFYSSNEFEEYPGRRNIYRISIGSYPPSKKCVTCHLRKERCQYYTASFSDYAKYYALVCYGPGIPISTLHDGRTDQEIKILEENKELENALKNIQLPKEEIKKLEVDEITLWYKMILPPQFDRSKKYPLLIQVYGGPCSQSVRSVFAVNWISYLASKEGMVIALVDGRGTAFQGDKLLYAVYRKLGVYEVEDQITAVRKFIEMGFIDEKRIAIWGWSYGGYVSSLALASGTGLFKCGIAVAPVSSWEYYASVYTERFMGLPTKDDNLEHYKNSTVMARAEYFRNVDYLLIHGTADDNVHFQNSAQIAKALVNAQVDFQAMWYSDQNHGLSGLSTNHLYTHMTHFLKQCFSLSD

[3] = target: T3, recombinant B7H3-His protein (UniProt Q5ZPR3 29-461, limits assumed); assay: MSD plate assay, plate-bound B7H3-His, detection with anti-BTN3A1 antibody
T3 construct: not shown: His tag
T3 sequence (looked up): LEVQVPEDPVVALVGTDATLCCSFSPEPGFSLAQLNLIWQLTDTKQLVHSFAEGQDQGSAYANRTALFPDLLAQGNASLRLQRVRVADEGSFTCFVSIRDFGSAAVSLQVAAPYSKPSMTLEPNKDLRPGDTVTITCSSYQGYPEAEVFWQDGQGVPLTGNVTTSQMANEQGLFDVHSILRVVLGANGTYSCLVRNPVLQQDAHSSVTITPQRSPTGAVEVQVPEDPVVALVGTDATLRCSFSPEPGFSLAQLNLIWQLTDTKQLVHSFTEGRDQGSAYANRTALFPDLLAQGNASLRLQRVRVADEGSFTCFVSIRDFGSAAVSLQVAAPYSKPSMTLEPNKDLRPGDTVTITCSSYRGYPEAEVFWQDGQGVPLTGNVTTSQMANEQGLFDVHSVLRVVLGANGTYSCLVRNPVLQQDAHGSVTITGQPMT

[4] = target: T4, B7H3 expressed on cells (OV-90, OVCAR3) (human, UniProt Q5ZPR3 29-534); assay: flow cytometry on OV-90 cells
T4 construct: whole, on cells; also called B7H3+ OV90 tumor cells; B7H3+ OVCAR3 cells
T4 sequence (looked up): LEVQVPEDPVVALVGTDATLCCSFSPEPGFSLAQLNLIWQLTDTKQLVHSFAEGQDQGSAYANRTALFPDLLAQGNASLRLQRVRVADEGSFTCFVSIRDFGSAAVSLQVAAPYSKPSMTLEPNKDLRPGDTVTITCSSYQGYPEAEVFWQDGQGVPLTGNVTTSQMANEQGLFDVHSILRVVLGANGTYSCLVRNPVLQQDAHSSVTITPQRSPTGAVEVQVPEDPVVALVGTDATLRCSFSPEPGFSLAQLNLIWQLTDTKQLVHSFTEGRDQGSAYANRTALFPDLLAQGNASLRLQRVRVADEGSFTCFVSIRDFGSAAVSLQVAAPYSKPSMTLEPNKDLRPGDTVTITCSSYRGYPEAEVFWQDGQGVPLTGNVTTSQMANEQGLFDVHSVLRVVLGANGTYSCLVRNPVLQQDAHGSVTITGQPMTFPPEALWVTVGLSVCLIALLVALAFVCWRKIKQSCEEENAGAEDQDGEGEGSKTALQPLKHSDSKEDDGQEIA

[5] = target: T1, CD19 expressed on cells (Daudi, Raji, …); assay: flow cytometry on RAJI cells (B7H3-negative, CD19-expressing), AF647 anti-Fc detection

| Binder | binding result [1] | binding result [2] | binding result [3] | binding result [4] | binding result [5] |
| --- | --- | --- | --- | --- | --- |
| B1 | binds | no binding | no binding |  |  |
| B2 |  |  |  | binds | no binding |
